We go through one substance from article PMC6597583.

The target of test [1] is AtCYP19-3 (Arabidopsis thaliana).
The target in test [2] is BnCYP18-5 (Brassica napus).
The target of test [3] is BnCYP18-4 (Brassica napus).
In test [4] the target is BnCYP19-1 (Brassica napus).

For the substance cyclosporin A (peptide), the IC50 of CsA for inhibition of PPIase activity (protease-coupled assay, substrate Suc-AAPF-pNA, 5 nM protein, 0 to 1000 nM CsA, 4 °C) in test [1] came to 20.4 nM; in test [2], 22.4 nM; in test [3], 14.2 nM; in test [4], 16.6 nM.
